Measured values from publication doi:10.1101/2024.04.30.591959, “Structural insights into human propionyl-CoA carboxylase (PCC) and 3-methylcrotonyl-CoA carboxylase (MCC)” (bioRxiv, 2024).
Blank lines part the entries; values can stand above or below the binder they belong to.

Key:
Assay in all cases: cryo-EM structure; endogenous holoenzymes co-purified from Expi 293F cells as a mixture of biotin-dependent carboxylases; HBS buffer (20 mM HEPES, pH 7.4, 150 mM NaCl); apo, or pre-incubated with 25 mM NaHCO3, 10 mM MgCl2 and 10 mM propionyl-CoA or acetyl-CoA, 10 mM ATP added before freezing
[1] = molecular target: T1, human propionyl-CoA carboxylase α subunit (human (endogenous in Expi 293F), UniProt P05165 53-728, biotin covalently linked to K694 (AMKM motif of the BCCP domain)); details: both partners purified
T1 construct: Propionyl-CoA carboxylase α subunit (PCCα), human, endogenous; holds the BC, BT and BCCP domains; Purified as part of the endogenous α6β6 PCC holoenzyme, in a mixture with the other biotin-dependent carboxylases; also called PCCα; α subunit of PCC; source: endogenous, Expi 293F cells, purified (Strep-Tactin XT resin, size-exclusion chromatography)
T1 sequence (looked up): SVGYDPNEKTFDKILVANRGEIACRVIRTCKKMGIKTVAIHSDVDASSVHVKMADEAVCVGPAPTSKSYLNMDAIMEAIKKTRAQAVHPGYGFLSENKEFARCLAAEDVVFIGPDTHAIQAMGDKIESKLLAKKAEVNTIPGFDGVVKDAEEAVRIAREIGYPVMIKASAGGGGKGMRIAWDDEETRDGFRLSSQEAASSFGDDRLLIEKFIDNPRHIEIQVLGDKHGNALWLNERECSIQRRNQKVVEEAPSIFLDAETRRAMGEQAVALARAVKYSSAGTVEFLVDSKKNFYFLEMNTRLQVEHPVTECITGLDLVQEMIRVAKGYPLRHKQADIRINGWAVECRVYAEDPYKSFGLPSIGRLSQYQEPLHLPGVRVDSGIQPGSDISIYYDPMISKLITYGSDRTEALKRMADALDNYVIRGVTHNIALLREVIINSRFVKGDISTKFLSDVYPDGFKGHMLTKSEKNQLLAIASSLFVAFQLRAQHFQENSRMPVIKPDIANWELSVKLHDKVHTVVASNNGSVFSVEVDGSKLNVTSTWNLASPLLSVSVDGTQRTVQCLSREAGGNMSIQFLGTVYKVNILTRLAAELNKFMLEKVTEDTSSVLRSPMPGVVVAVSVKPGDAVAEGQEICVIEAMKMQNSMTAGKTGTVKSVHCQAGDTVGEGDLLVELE

[2] = molecular target: T2, human 3-methylcrotonyl-CoA carboxylase α subunit (human (endogenous in Expi 293F), UniProt Q96RQ3 42-725, biotin covalently linked to K681 (AMKM motif of the BCCP domain)); details: both partners purified
T2 construct: 3-methylcrotonyl-CoA carboxylase α subunit (MCCα), human, endogenous; holds the BC, BT and BCCP domains; Purified as part of the endogenous α6β6 MCC holoenzyme, in a mixture with the other biotin-dependent carboxylases; also called MCCα; α subunit of MCC; source: endogenous, Expi 293F cells, purified (Strep-Tactin XT resin, size-exclusion chromatography)
T2 sequence (looked up): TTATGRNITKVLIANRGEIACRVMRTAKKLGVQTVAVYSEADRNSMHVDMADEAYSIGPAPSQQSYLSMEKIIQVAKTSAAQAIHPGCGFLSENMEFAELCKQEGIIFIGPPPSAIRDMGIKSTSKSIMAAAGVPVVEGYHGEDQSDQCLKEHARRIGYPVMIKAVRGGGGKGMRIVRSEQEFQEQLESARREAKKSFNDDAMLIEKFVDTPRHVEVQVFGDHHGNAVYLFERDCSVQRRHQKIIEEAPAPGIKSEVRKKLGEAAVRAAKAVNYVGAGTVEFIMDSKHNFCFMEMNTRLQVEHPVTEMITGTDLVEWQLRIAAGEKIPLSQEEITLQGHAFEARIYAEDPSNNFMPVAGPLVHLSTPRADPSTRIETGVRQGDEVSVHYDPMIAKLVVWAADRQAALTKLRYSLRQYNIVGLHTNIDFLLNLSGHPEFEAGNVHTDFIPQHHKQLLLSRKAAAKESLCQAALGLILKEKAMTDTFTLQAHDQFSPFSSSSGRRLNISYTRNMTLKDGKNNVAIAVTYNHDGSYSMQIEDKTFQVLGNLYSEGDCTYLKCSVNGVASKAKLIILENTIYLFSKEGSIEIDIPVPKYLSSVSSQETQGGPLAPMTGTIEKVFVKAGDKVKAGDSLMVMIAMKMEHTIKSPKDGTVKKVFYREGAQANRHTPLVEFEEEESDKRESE

[3] = molecular target: the molecule itself

binding result [1]: binds
B1: human propionyl-CoA carboxylase β subunit (natural protein, human (endogenous in Expi 293F), UniProt P05166 29-539, looked up)
chain: CSQATSVNERIENKRRTALLGGGQRRIDAQHKRGKLTARERISLLLDPGSFVESDMFVEHRCADFGMAADKNKFPGDSVVTGRGRINGRLVYVFSQDFTVFGGSLSGAHAQKICKIMDQAITVGAPVIGLNDSGGARIQEGVESLAGYADIFLRNVTASGVIPQISLIMGPCAGGAVYSPALTDFTFMVKDTSYLFITGPDVVKSVTNEDVTQEELGGAKTHTTMSGVAHRAFENDVDALCNLRDFFNYLPLSSQDPAPVRECHDPSDRLVPELDTIVPLESTKAYNMVDIIHSVVDEREFFEIMPNYAKNIIVGFARMNGRTVGIVGNQPKVASGCLDINSSVKGARFVRFCDAFNIPLITFVDVPGFLPGTAQEYGGIIRHGAKLLYAFAEATVPKVTVITRKAYGGAYDVMSSKHLCGDTNYAWPTAEIAVMGAKGAVEIIFKGHENVEAAQAEYIEKFANPFPAAVRGFVDDIIQPSSTRARICCDLDVLASKKVQRPWRKHANIPL
notes: Propionyl-CoA carboxylase β subunit (PCCβ), human, endogenous; CT domain (CT-N and CT-C subdomains); Co-purified with the biotinylated α subunit as the endogenous α6β6 PCC holoenzyme; also called PCCβ; β subunit of PCC; source: endogenous, Expi 293F cells, purified (Strep-Tactin XT resin, size-exclusion chromatography)

binding result [2]: binds
B2: human 3-methylcrotonyl-CoA carboxylase β subunit (natural protein, human (endogenous in Expi 293F), UniProt Q9HCC0 23-563, looked up)
chain: YHGDSVASLGTQPDLGSALYQENYKQMKALVNQLHERVEHIKLGGGEKARALHISRGKLLPRERIDNLIDPGSPFLELSQFAGYQLYDNEEVPGGGIITGIGRVSGVECMIIANDATVKGGAYYPVTVKKQLRAQEIAMQNRLPCIYLVDSGGAYLPRQADVFPDRDHFGRTFYNQAIMSSKNIAQIAVVMGSCTAGGAYVPAMADENIIVRKQGTIFLAGPPLVKAATGEEVSAEDLGGADLHCRKSGVSDHWALDDHHALHLTRKVVRNLNYQKKLDVTIEPSEEPLFPADELYGIVGANLKRSFDVREVIARIVDGSRFTEFKAFYGDTLVTGFARIFGYPVGIVGNNGVLFSESAKKGTHFVQLCCQRNIPLLFLQNITGFMVGREYEAEGIAKDGAKMVAAVACAQVPKITLIIGGSYGAGNYGMCGRAYSPRFLYIWPNARISVMGGEQAANVLATITKDQRAREGKQFSSADEAALKEPIIKKFEEEGNPYYSSARVWDDGIIDPADTRLVLGLSFSAALNAPIEKTDFGIFRM
notes: 3-methylcrotonyl-CoA carboxylase β subunit (MCCβ), human, endogenous; CT domain (CT-N and CT-C subdomains); Co-purified with the biotinylated α subunit as the endogenous α6β6 MCC holoenzyme; also called MCCβ; β subunit of MCC; source: endogenous, Expi 293F cells, purified (Strep-Tactin XT resin, size-exclusion chromatography)
stoichiometry N [3]: 6
